Measurements from patent US20260139001A1.

Molecular target: SARS-CoV-2 Spike RBD, Wuhan (SARS-CoV-2) (UniProt P0DTC2)

Ribosomally constructed Wuhan-NS (VHH72 V104UAG construct translated with NBDxK-tRNACUA)
normalized tube fluorescence: 0.58
